Measured values: patent publication US11459369B2, “Fusion protein for alpha-melanocyte stimulating hormone and preparation method and use thereof” (LANZHOU UNIVERSITY, priority 2015, dated 2022)

How the values were obtained:
[1] = Validation of the ability to cross the BBB: level of fusion protein in hippocampal tissue homogenate by HSA ELISA; type: in vivo; conditions: mice, 1 μm/kg single intravenous injection, hippocampal tissue 6 h after administration
Protocol: Validation of the Ability to Across BBB of PTD-HSA-L-α-MSH
HSA Elisa Kit (cygnustechnologies).
10 mice (18-22 g) were used in the experiment, and were purchased from Laboratory Animal Center of Lanzhou University.
Mice were housed in groups of at most five animals per cage with clean water and food available ad libitum. PTD-HSA-L-α-MSH or HSA-L-α-MSH were given at a dosage of 1 μm/kg through a single intravenous injection in 150 μL volume. Mice were anesthetized 6 h after drug administration. The hippocampal tissue was harvest and homogenized immediately. Finally the level of PTD-HSA-L-α-MSH or HSA-L-α-MSH in hippocampal tissue homogenate was tested by ELISA.

[2] = rat, iv administration, full length peptide; cited from earlier work
TNF-α = experiment: Experimental brain inflammation of mouse induced by LPS: TNF-α in hippocampal tissue homogenate by ELISA; type: in vivo; conditions: mice
Description: Neuroprotection of TAT-HSA-α-MSH on Experimental Brain Inflammation in Mice
TNF-a Elisa Kit (Dakewei, China).
20 mice (18-22 g) were used in the experiment, and were purchased from Laboratory Animal Center of Lanzhou University.
Lipopolysaccharide (LPS), a gram negative bacterial endotoxin, is the cell wall component of gram negative bacteria. Within the CNS, LPS challenge triggers central inflammatory responses, which results in releasing of proinflammatory mediators such as TNF-α. Therefore, to determine whether the described PTD-HSA-L-α-MSH can inhibit the production of pro-inflammatory factors in vivo, experimental brain inflammation of mouse induced by LPS was established, in which TNF-α was analyzed to detect the efficacy of PTD-HSA-L-α-MSH.
Mice were housed in groups of at most five animals per cage with clean water and food available ad libitum. The mice in control group were injected with 150 μL saline two times. The mice in LPS group were injected with 150 μL LPS at the dose of 5 mg/kg, and then injected with 150 μL saline. The mice in PTD-HSA-L-α-MSH+LPS group were injected with 150 μL LPS at the dose of 5 mg/kg, and then injected with 150 μL PTD-HSA-L-α-MSH at the dose of 1 μm/kg. The mice in α-MSH+LPS group were injected with 150 μL LPS at the dose of 5 mg/kg, and then injected with 150 μL α-MSH at the dose of 1 μm/kg. Mice were anesthetized 2 h after drug administration. […]

Substance	PTD-HSA-L-α-MSH(ng/mL), level in hippocampal tissue homogenate tested by ELISA [1]	half-life [2]	TNF-α (pg/mg protein) in hippocampal tissues tested by ELISA (TNF-α; LPS 5 mg/kg then substance 1 μm/kg, hippocampal tissue 2 h after administration)	effect on TNF-α increase compared with LPS group (TNF-α; LPS 5 mg/kg, single dose of 1 μm/kg intraperitoneally)
HSA-L-α-MSH: fusion protein of HSA, linker and α-MSH without PTD; amino acid sequence SEQ ID NO:10, about 69 KDa; comparator	0.06 ± 0.02 ng/mL			
α-Melanocyte stimulating hormone [α-MSH, reference compound]		a few minutes	155.8 ± 10.3 pg/mg protein	could not be suppressed
